From the supplement of paper PMC10567573

B1: IFRG15 (parent)
chain: INRADYCPECYPDNPANRSLVLPW
B2: MMP1 (parent)
chain: MFFKDRFYMRTNPFYPEVELNFIS

Variants of: B1
Test: protein stability index of a GFP-peptide fusion (GPS, HEK-293T) (PSI 1-6); higher = more stable
Details: c terminus: a fixed tail appended
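Also: lentivirally expressed fusions sorted by FACS into six bins by GFP to DsRed ratio, PSI derived from sequencing read proportions per bin multiplied by bin number.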

Variant	protein stability index
C10W	2.07
C10P	3.17
C10T	2.35
C10R	2.29
C10Y	2.31
C10S	2.92
C10Q	3.09
C10V	2.32
S19Y	1.88
S19D	2.3
S19V	1.41
S19E	2.22
S19C	1.81
S19W	1.99
S19M	1.65
S19Q	2
S19F	1.27
S19R	1.59
S19T	1.77
S19L	2.16
S19I	1.72
S19H	2.07
S19N	1.8
S19A	2.16
S19K	2.14

Variant	protein stability index
S19P	2.4
S19G	1.82
R18K	2.83
R18S	2.27
R18W	1.69
R18A	2.17
R18F	2.32
R18H	2.17
R18L	1.83
R18I	1.82
R18E	2.13
R18D	2.88
R18G	1.99
R18Y	1.44
R18T	1.35
R18V	1.9
R18P	2.38
R18C	1.81
R18Q	1.99
R18N	2.22
R18M	2.06
P12C	1.69
P12D	2.7
P12K	2.1
P12S	2.03

Variant	protein stability index
P12W	1.72
P12R	2.05
P12V	1.84
P12A	2.04
P12Y	2.26
P12T	1.98
P12G	2.69
P12N	1.66
P12H	1.91
P12F	1.78
P12M	2.08
P12Q	2.11
P12I	1.56
P12E	2.46
P12L	1.9
Y11M	2.15
Y11E	2.73
Y11K	2.27
Y11I	2.25
Y11F	2.2
Y11Q	2.58
Y11P	3.15
Y11V	2.8
Y11H	2.22
Y11G	2.84

Variant	protein stability index
Y11R	2.72
Y11A	1.96
Y11S	2.69
Y11N	2.23
Y11W	2.1
Y11T	2.32
Y11L	1.83
Y11C	3.16
Y11D	3.28
P23Q	1.87
P23H	1.65
P23L	1.57
P23W	2.4
P23C	1.67
P23N	1.65
P23M	2.5
P23K	1.71
P23S	2.83
P23E	1.03
P23R	1.58
P23I	2.89
P23D	2.92
P23Y	2.09
P23T	1.59
V21I	1.97

Variant	protein stability index
V21R	1.83
V21P	2.92
V21K	1.98
V21Y	1.99
V21M	2.29
V21L	2.53
V21Q	2.12
V21D	2.43
V21F	1.54
V21G	2.69
V21H	1.84
V21S	1.97
V21C	1.82
V21N	2.3
V21T	2.43
V21A	2.54
V21E	2.29
V21W	1.29
N14H	2.52
N14I	1.53
N14Y	2.08
N14S	2.72
N14E	2.64
N14R	2
N14F	1.71

Variant	protein stability index
N14P	2.28
N14G	2.83
N14K	2.25
N14Q	1.86
N14C	2.2
N14W	1.03
N14T	1.6
N14L	1.67
N14M	1.68
N14D	2.52
N14V	2.04
N14A	2.31
P15A	2.9
P15N	1.97
P15H	2.46
P15T	1.9
P15K	1.74
P15V	1.51
P15W	2.19
P15R	2.07
P15C	2.02
P15E	2.58
P15I	2.29
P15M	2.19
P15F	1.44

Variant	protein stability index
P15Q	2.1
P15G	2.48
P15D	2.12
P15S	2.94
P15L	1.97
P15Y	1.84
D13I	1.71
D13M	2.25
D13T	2.37
D13G	1.98
D13A	1.94
D13K	1.68
D13Q	2.28
D13Y	1.57
D13E	1.86
D13R	1.69
D13H	2.07
D13V	1.63
D13S	1.82
D13W	2.18
D13F	1.56
D13N	2.08
D13L	2.53
D13C	1.97
D13P	2.11

Variant	protein stability index
W24C	2.31
W24F	2.3
W24I	1.9
W24G	2.69
W24K	2.28
W24E	2.99
W24S	2.9
W24A	2.19
W24Y	2.12
W24R	1.77
W24N	2.46
W24D	3.89
W24P	2.62
W24L	1.8
W24V	2.53
W24T	2.3
W24H	2.37
W24M	2.23
W24Q	2.24
L22G	2.37
L22Y	2.17
L22D	2.15
L22I	1.72
L22K	2.04
L22V	3

Variant	protein stability index
L22C	2.12
L22A	2.69
L22M	2.37
L22R	2.36
L22N	2.65
L22S	1.93
L22T	2.31
L22E	2.44
L22W	1.65
L22F	2.05
L22H	1.49
L22Q	2.35
L22P	2.93
N17Q	1.79
N17S	2.21
N17A	2.3
N17V	1.79
N17I	2.25
N17M	1.91
N17C	2.03
N17R	1.51
N17D	2.1
N17W	1.6
N17P	1.89
N17T	2.53

Variant	protein stability index
N17F	1.54
N17E	2.14
N17Y	1.74
N17K	1.8
N17L	1.68
N17G	2.53
N17H	2.04
L20N	2.78
L20K	2.27
L20V	2.44
L20G	2.48
L20F	1.79
L20P	2.31
L20H	2.4
L20Y	1.86
L20A	3.02
L20D	2.73
L20W	1.8
L20T	2.57
L20R	2.13
L20C	2.06
L20E	2.9
L20S	2.28
L20Q	2.02
L20I	2.27

Variant	protein stability index
L20M	2.67
A16P	2.15
A16G	2.04
A16F	2.02
A16T	2.06
A16N	2.4
A16C	1.69
A16Y	2.67
A16D	2.37
A16I	1.6
A16M	1.85
A16V	1.85
A16S	2.42
A16R	1.67
A16L	1.86
A16H	1.71
A16Q	2.23
A16W	1.85
A16K	1.94
A16E	2.42

Variants of: B2
Test: as above
Details: c terminus: a fixed tail appended

Variant	protein stability index
K4H	3.26
K4M	2.3
K4N	2.26
K4Y	3.55
K4R	2.56
K4V	1.49
K4Q	4.05
K4S	3.15
K4W	2.11
K4G	1.72
K4P	2.5
K4F	3.7
K4I	3.25
M1K	2.94
M1W	3.52
M1A	1.89
M1Y	1.86
M1R	2.2
M1H	2.05
M1S	2.84
M1D	2.24
M1V	3.89

Variant	protein stability index
M1I	2.17
M1F	3.03
M1N	1.76
M1C	2.83
M1E	2.86
F3N	1.73
F3Y	2.97
F3R	1.55
F3D	1.85
F3L	2.29
F3I	2.64
F3T	2.11
F3W	3.61
F3H	1.89
F3P	1.48
F3S	2.9
F3K	1.83
F3G	4.14
F3V	2.82
F3Q	3.42
F3E	1.5
F2A	3.29

Variant	protein stability index
F2K	4.48
F2T	2.29
F2Q	2.26
F2P	2.06
F2R	4.3
F2L	2.36
F2I	2.59
F2G	3.1
F2V	2.75
F2C	3.01
F2S	2.72
F2E	2.98
F2H	2.93
F2N	1.93
F2D	2.71
F2M	2.02
D5E	2.63
D5C	3.75
D5A	2.8
D5G	3.47
